The numbers were not newly measured in paper PMC10046553, which cites them from elsewhere.

The target in this data set is CD71 (transferrin receptor 1) (Homo sapiens) (UniProt P02786).
Chain of CD71 (transferrin receptor 1) (Homo sapiens) (P02786 89-760): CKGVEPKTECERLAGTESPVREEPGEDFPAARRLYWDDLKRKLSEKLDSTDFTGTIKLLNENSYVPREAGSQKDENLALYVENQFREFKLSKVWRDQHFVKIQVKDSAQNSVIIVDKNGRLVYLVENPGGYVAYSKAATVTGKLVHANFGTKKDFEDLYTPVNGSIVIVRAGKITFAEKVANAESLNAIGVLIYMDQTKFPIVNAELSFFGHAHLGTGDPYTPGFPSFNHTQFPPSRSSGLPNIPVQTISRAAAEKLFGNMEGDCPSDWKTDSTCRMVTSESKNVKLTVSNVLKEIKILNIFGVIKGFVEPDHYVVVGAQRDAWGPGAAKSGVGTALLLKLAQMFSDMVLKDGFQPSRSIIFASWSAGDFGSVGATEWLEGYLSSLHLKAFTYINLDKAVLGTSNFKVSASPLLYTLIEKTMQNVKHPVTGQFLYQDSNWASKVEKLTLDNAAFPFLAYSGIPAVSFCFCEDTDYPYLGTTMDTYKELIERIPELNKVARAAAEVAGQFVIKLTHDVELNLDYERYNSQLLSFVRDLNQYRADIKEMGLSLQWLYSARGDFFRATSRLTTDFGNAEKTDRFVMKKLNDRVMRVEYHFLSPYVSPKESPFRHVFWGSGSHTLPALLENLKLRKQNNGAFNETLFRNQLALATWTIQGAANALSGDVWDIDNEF

With “Human serum albumin (from UniProt P02768)”, the Kd was 750 nM.

As a reminder, the Kd is the free concentration of one partner at which half of the binding sites on the other are occupied at equilibrium, for simple one-to-one binding.
